From US8975259B2, “Compositions and methods for inhibiting G protein signaling” (University of Rochester, priority 2007, dated 2015)

Legend:
PLCβ3 = experiment: Gβ1γ2-dependent activation of purified PLCβ3; assay type: biochemical; conditions: Table 4; read-out: PLC β3 IC50
Protocol: (§1) Purified PLCβ2 (0.25 ng) was assayed in the presence (▴) or absence (▪) of 100 nM purified Gβ1γ2. […] Assays contained 10 ng of purified p101/p110 PI3Kγ heterodimer with or without 100 nM purified Gβ1γ2. Left panel: (▴) 100 nM Gβ1γ2 or (▪) no βγ. […] M119 or M201 and 25 nM purified GRK2 were added simultaneously to 250 nM biotinylated Gβ1γ2 (bGβ1γ2) immobilized on streptavidin agarose. GRK2 was detected with antibody to GRK2. Data are representative (mean ±SEM, except D) repeated at least three times each. […] 30 nM bGβ1γ2 was incubated with either 30 nM PLCβ2 or PLCβ3 in the presence or absence of M119 or M201 for 16 h at 4° C. before precipitation with avidin agarose and detection with PLCβ2,or Gβ antibodies. […] Same as 4E with PLCβ3.
The ability of NSC119910 analogs to selectively modulate activation PLC-β2 and -β3 was analyzed. In this assay, PLC-β2 and PLC-β3 were purified and PLC enzymatic activity was measured in the presence or absence of purified βy and in the presence or absence of analog.
(§2) Nevertheless, M119 and M201 were tested in in vitro reconstitution assays of Gβγ-dependent activation of PLCβ2, PLCβ3 and PI3Kγ and binding to GRK2. […] These are only two of multiple diverse compounds identified, indicating potential for multiple modes of Gβγ-dependent target modulation by these small molecules.

PI3Kγ = experiment: Gβ1γ2-dependent activation of purified p101/p110 PI3Kγ; assay type: biochemical; conditions: Table 5; read-out: PI3Kγ IC50
Protocol: as §1, §2

Gβ1γ2 (Gβ1 mutants) [1] = target: T1, Gβ1γ2 (Gβ1 mutants) (UniProt P54311+P63212, H311A); experiment: Phage ELISA: binding of peptide-displaying phage to wild-type or alanine-substituted b-βγ; design: species or system rat; conditions: Gβ1 His311Ala; mean ± SD
T1 construct: made in house; host or cells: Sf9 insect cells (baculovirus), partially purified via (His)6-Gαi1 on Ni-NTA
Text: (§3) Wild-type Gβ1 and Gp1 mutants were made in the baculovirus vector PDW464 which encodes a biotinylation site at a lysine upstream of the amino terminus of Gβ1 (Goubaeva, et al. (2003) supra). Mutants were generated by overlap extension PCR using standard protocols. The wild-type and mutant Gβ1 constructs consisted of a 20 amino acid biotin acceptor peptide (BAP) sequence fused in-frame with the amino-terminus of rat Gβ1 subunit. When coexpressed with biotin holoenzyme synthetase (BirA) in Sf9 cells, the Gβ1 subunit becomes covalently biotinylated in vivo at the specific lysine acceptor residue in the BAP. Using this approach, 1-2 mg protein of purified protein can be obtained per liter of Sf9 insect cells. As 45 ng of protein is used in the phage ELISA assay, a single purification is sufficient for 10,000 to 30,000 binding assays.
(§4) Phage ELISA assays used to assess peptide binding to wild-type and mutant b-βγ were performed according to standard methods (Smrcka and Scott (2002) Methods Enzymol. 344:557-76). Briefly, 1 μg streptavidin was immobilized in the well of a […] overnight at 4° C. The wells were blocked with 100 μL of 2% bovine serum albumin (BSA) in Tris-buffered saline (TBS) for 1 hour at 4° C. followed by three washes of IX TBS/0.5% TWEEN®. Forty μL of 25 nM bGβ1γ2 in TBS/0.5% TWEEN® was added to each well and incubated at 4° C. for 1.5 hour. The wells were washed, followed by the addition of IxIO^6 to IxIO^10 phage particles and incubated at 4° C. for 3 hours. The wells were then washed six times with TBS/0.5% TWEEN® followed by addition of 40 μL of 1:5000 dilution of anti-M13 antibody (Pharmacia, Uppsala, Sweden) and incubated at room temperature for 1 hour. The wells were washed, followed by the addition of 40 μL of (2,2′-Azino-bis (3-ethylbenzthiazoline)-6-sulfonic acid (ABTS) and the colorimetric reaction was monitored at 405 nm. Nonspecific binding was subtracted for each reading.
(§5) The nine peptides were selected to represent the different consensus groups of peptides previously identified (See Scott et al. (2001) supra; Table 15) and to compare binding characteristics within and between consensus groups. […] As disclosed herein, the binding signal obtained in the ELISA assay was correlated to a loss in affinity by comparing the results to behavior of the peptide in a solution based assay. […] For the purposes of present disclosure, any substitution that decreased the binding to less than 20% of the wild-type binding was considered to be a critical binding contact for that peptide.

Gβ1γ2 (Gβ1 mutants) [2] = target: T2, Gβ1γ2 (Gβ1 mutants) (UniProt P54311+P63212, R314A); experiment: as above; design: species or system rat; conditions: Gβ1 Arg314Ala; mean ± SD
T2 construct: made in house; host or cells: Sf9 insect cells (baculovirus), partially purified via (His)6-Gαi1 on Ni-NTA
Text: as §3, §4, §5

Gβ1γ2 (Gβ1 mutants) [3] = target: T3, Gβ1γ2 (Gβ1 mutants) (UniProt P54311+P63212, W99A); experiment: as above; design: species or system rat; conditions: Gβ1 Trp99Ala; mean ± SD
T3 construct: made in house; host or cells: Sf9 insect cells (baculovirus), partially purified via (His)6-Gαi1 on Ni-NTA
Text: as §3, §4, §5

Gβ1γ2 (Gβ1 mutants) [4] = target: T4, Gβ1γ2 (Gβ1 mutants) (UniProt P54311+P63212, Y59A); experiment: as above; design: species or system rat; conditions: Gβ1 Tyr59Ala; mean ± SD
T4 construct: made in house; host or cells: Sf9 insect cells (baculovirus), partially purified via (His)6-Gαi1 on Ni-NTA
Text: as §3, §4, §5

Gβ1γ2 (Gβ1 mutants) [5] = target: T5, Gβ1γ2 (Gβ1 mutants) (UniProt P54311+P63212, N230A); experiment: as above; design: species or system rat; conditions: Gβ1 Asn230Ala; mean ± SD
T5 construct: made in house; host or cells: Sf9 insect cells (baculovirus), partially purified via (His)6-Gαi1 on Ni-NTA
Text: as §3, §4, §5

Gβ1γ2 (Gβ1 mutants) [6] = target: T6, Gβ1γ2 (Gβ1 mutants) (UniProt P54311+P63212, M101A); experiment: as above; design: species or system rat; conditions: Gβ1 Met101Ala; mean ± SD
T6 construct: made in house; host or cells: Sf9 insect cells (baculovirus), partially purified via (His)6-Gαi1 on Ni-NTA
Text: as §3, §4, §5

Gβ1γ2 (Gβ1 mutants) [7] = target: T7, Gβ1γ2 (Gβ1 mutants) (UniProt P54311+P63212, D246S); experiment: as above; design: species or system rat; conditions: Gβ1 Asp246Ser; mean ± SD
T7 construct: made in house; host or cells: Sf9 insect cells (baculovirus), partially purified via (His)6-Gαi1 on Ni-NTA
Text: as §3, §4, §5

Gβ1γ2 (Gβ1 mutants) [8] = target: T8, Gβ1γ2 (Gβ1 mutants) (UniProt P54311+P63212, Y145A); experiment: as above; design: species or system rat; conditions: Gβ1 Tyr145Ala; mean ± SD
T8 construct: made in house; host or cells: Sf9 insect cells (baculovirus), partially purified via (His)6-Gαi1 on Ni-NTA
Text: as §3, §4, §5

Gβ1γ2 (Gβ1 mutants) [9] = target: T9, Gβ1γ2 (Gβ1 mutants) (UniProt P54311+P63212, L117A); experiment: as above; design: species or system rat; conditions: Gβ1 Leu117Ala; mean ± SD
T9 construct: made in house; host or cells: Sf9 insect cells (baculovirus), partially purified via (His)6-Gαi1 on Ni-NTA
Text: as §3, §4, §5

Gβ1γ2 (Gβ1 mutants) [10] = target: T10, Gβ1γ2 (Gβ1 mutants) (UniProt P54311+P63212, W332A); experiment: as above; design: species or system rat; conditions: Gβ1 Trp332Ala; mean ± SD
T10 construct: made in house; host or cells: Sf9 insect cells (baculovirus), partially purified via (His)6-Gαi1 on Ni-NTA
Text: as §3, §4, §5

Gβ1γ2 (Gβ1 mutants) [11] = target: T11, Gβ1γ2 (Gβ1 mutants) (UniProt P54311+P63212, D186A); experiment: as above; design: species or system rat; conditions: Gβ1 Asp186Ala; mean ± SD
T11 construct: made in house; host or cells: Sf9 insect cells (baculovirus), partially purified via (His)6-Gαi1 on Ni-NTA
Text: as §3, §4, §5

Gβ1γ2 (Gβ1 mutants) [12] = target: T12, Gβ1γ2 (Gβ1 mutants) (UniProt P54311+P63212, M188A); experiment: as above; design: species or system rat; conditions: Gβ1 Met188Ala; mean ± SD
T12 construct: made in house; host or cells: Sf9 insect cells (baculovirus), partially purified via (His)6-Gαi1 on Ni-NTA
Text: as §3, §4, §5

Gβ1γ2 (Gβ1 mutants) [13] = target: T13, Gβ1γ2 (Gβ1 mutants) (UniProt P54311+P63212, K57A); experiment: as above; design: species or system rat; conditions: Gβ1 Lys57Ala; mean ± SD
T13 construct: made in house; host or cells: Sf9 insect cells (baculovirus), partially purified via (His)6-Gαi1 on Ni-NTA
Text: as §3, §4, §5

| IC50 (PLCβ3) [µM] | IC50 (PI3Kγ) [µM] | % of Wild-Type Signal (Gβ1γ2 (Gβ1 mutants) [1]) [%] | % of Wild-Type Signal (Gβ1γ2 (Gβ1 mutants) [2]) [%] | % of Wild-Type Signal (Gβ1γ2 (Gβ1 mutants) [3]) [%] | % of Wild-Type Signal (Gβ1γ2 (Gβ1 mutants) [4]) [%] | % of Wild-Type Signal (Gβ1γ2 (Gβ1 mutants) [5]) [%] | % of Wild-Type Signal (Gβ1γ2 (Gβ1 mutants) [6]) [%] | % of Wild-Type Signal (Gβ1γ2 (Gβ1 mutants) [7]) [%] | % of Wild-Type Signal (Gβ1γ2 (Gβ1 mutants) [8]) [%] | % of Wild-Type Signal (Gβ1γ2 (Gβ1 mutants) [9]) [%] | % of Wild-Type Signal (Gβ1γ2 (Gβ1 mutants) [10]) [%] | % of Wild-Type Signal (Gβ1γ2 (Gβ1 mutants) [11]) [%] | % of Wild-Type Signal (Gβ1γ2 (Gβ1 mutants) [12]) [%] | % of Wild-Type Signal (Gβ1γ2 (Gβ1 mutants) [13]) [%] | Molecule |
| --- | --- | --- | --- | --- | --- | --- | --- | --- | --- | --- | --- | --- | --- | --- | --- |
| 62 | – | – | – | – | – | – | – | – | – | – | – | – | – | – | Nc1ccc(-c2ccc(Nc3cc(S(=O)(=O)O)c(N)c4c3C(=O)c3ccccc3C4=O)cc2)c(S(=O)(=O)O)c1 [drawing 61] |
| – | 6 | – | – | – | – | – | – | – | – | – | – | – | – | – | Nc1cccc(Nc2cc(S(=O)(=O)O)c(N)c3c2C(=O)c2ccccc2C3=O)c1 [drawing 64] |
| 58 | – | – | – | – | – | – | – | – | – | – | – | – | – | – | Nc1c(S(=O)(=O)O)cc(Nc2cccc(S(N)(=O)=O)c2)c2c1C(=O)c1ccccc1C2=O [drawing 58] |
| 12 | – | – | – | – | – | – | – | – | – | – | – | – | – | – | Nc1ccc(Nc2cc(S(=O)(=O)O)c(N)c3c2C(=O)c2ccccc2C3=O)cc1 [drawing 59] |
| – | – | 3.0 ± 4.0 | 2.8 ± 1.6 | 1.2 ± 2.7 | 0.3 ± 0.7 | 19.8 ± 12.3 | 70.5 ± 35.3 | 2.3 ± 3.0 | 88.0 ± 29.9 | 5.2 ± 3.1 | −0.3 ± 2.5 | 1.4 ± 1.7 | 4.0 ± 3.4 | 0.1 ± 1.6 | SCKRTKAQILLAPCT [Compound C1] |
| – | – | 23.6 ± 46.0 | 2.4 ± 3.9 | 32.6 ± 26.3 | −2.0 ± 9.5 | 27.6 ± 19.1 | 6.0 ± 5.1 | 0.6 ± 2.5 | 0.1 ± 6.5 | 2.1 ± 5.5 | −1.5 ± 3.6 | 2.4 ± 3.5 | 8.5 ± 5.2 | −4.5 ± 6.2 | LCSKAYLLLGQTC [Compound 2F] |
| – | – | 11.7 ± 8.0 | 1.3 ± 3.1 | −1.0 ± 5.1 | −1.7 ± 4.8 | 0.0 ± 3.3 | 157.1 ± 51.5 | 5.9 ± 5.7 | 4.5 ± 8.1 | 1.5 ± 5.5 | 4.7 ± 6.2 | 267.2 ± 40.6 | −0.7 ± 2.5 | −1.2 ± 4.5 | WCPPKLEQWYDGCA [Compound C2] |
